In test [1] the target is T1, SARS-CoV-2 wild type RBD (BEI NR52309) (Severe acute respiratory syndrome …, UniProt P0DTC2). As to the kind of experiment: BLI. On the technique in general: BLI is a label-free optical method that tracks binding on a fibre tip over time.
In test [2] the target is T1, SARS-CoV-2 wild type RBD (BEI NR52309). As to the kind of experiment: crystal structure.

We go through six molecules from article doi:10.1101/2020.10.15.341636 (bioRxiv, 2020).

B1: mAb 298 IgG (antibody, V domains shown)
VH: QVQLVQSGAEVKKPGASVKVSCKASGGTFSTYGISWVRQAPGQGLEWMGWISPNSGGTDLAQKFQGRVTMTRDTSTSTVYMELSSLRSEDTAVYYCASDPRDDIAGGYWGQGTLVTVSS
VL: not shown
B1: in test [1], the binding result was “binds”.

B2: Fab 298 (Fab, V domains shown)
VH: QVQLVQSGAEVKKPGASVKVSCKASGGTFSTYGISWVRQAPGQGLEWMGWISPNSGGTDLAQKFQGRVTMTRDTSTSTVYMELSSLRSEDTAVYYCASDPRDDIAGGYWGQGTLVTVSS
VL: not shown
Take B2: in test [2], the binding result is “binds”.

B3: mAb 236 IgG (antibody, V domains shown)
VH: QVQLVQSGAEVKKPGASVKVSCKASGGTFTSYGINWVRQAPGQGLEWMGWMNPNSGNTGYAQKFQGRVTMTRDTSTSTVYMELSSLRSEDTAVYYCASRGIQLLPRGMDVWGQGTTVTVSS
VL: not shown
B3: in test [1], the binding result was “binds”.

B4: mAb 52 IgG (antibody, V domains shown)
VH: QVQLVQSGAEVKKPGSSVKVSCKASGYTFTSYGISWVRQAPGQGLEWMGGIIPMFGTTNYAQKFQGRVTITADKSTSTAYMELSSLRSEDTAVYYCARDRGDTIDYWGQGTLVTVSS
VL: DIQMTQSPSSLSASVGDRVTITCRASQGISNNLNWYQQKPGKAPKLLIYAASSLESGVPSRFSGSGSGTDFTLTISSLQPEDFATYYCQQGNGFPLTFGPGTKVDIK
For B4, the binding result in test [1] is listed as “binds”.

B5: Fab 52 (Fab, V domains shown)
VH: QVQLVQSGAEVKKPGSSVKVSCKASGYTFTSYGISWVRQAPGQGLEWMGGIIPMFGTTNYAQKFQGRVTITADKSTSTAYMELSSLRSEDTAVYYCARDRGDTIDYWGQGTLVTVSS
VL: DIQMTQSPSSLSASVGDRVTITCRASQGISNNLNWYQQKPGKAPKLLIYAASSLESGVPSRFSGSGSGTDFTLTISSLQPEDFATYYCQQGNGFPLTFGPGTKVDIK
Take B5: the binding result in test [2] is “binds”.

B6: mAb 324 IgG (antibody, V domains shown)
VH: QVQLVQSGAEVKKPGASVKVSCKASGGTFNNYGISWVRQAPGQGLEWMGWMNPNSGNTGYAQKFQGRVTMTRDTSTSTVYMELSSLRSEDTAVYYCARVGDYGDYIVSPFDLWGRGTLVTVSS
VL: DIQMTQSPSSLSASVGDRVTITCRASQSITTYLNWYQQKPGKAPKLLIYDASNLETGVPSRFSGSGSGTDFTLTISSLQPEDFATYYCQQSYSTPPTFGQGTKVEIK
In the case of B6, the binding result in test [1] is listed as “binds”.
